Experimental data taken from paper PMC12093852 (Cell Communication and Signaling : CCS, 2025).

Legend:
[1] = biological target: C-X-C chemokine receptor type 4 (CXCR4), endogenous on SupT1 cells (human (endogenous in SupT1)) (UniProt P61073)
CXCR4-LgBiT = CXCR4-LgBiT (UniProt P61073)
ACKR3-LgBiT = ACKR3-LgBiT (UniProt P25106)
[2] = biological target: CXCR4 N-terminally fused to Nanoluciferase (UniProt P61073); assay: FRET or BRET; NanoBRET ligand binding competition; HEK293T cells stably expressing the receptor N-terminally fused to Nanoluciferase; increasing concentrations of ligands with 10 nM CXCL12-AZ568; 2 h on ice
[3] = biological target: T1, C-X-C chemokine receptor type 4 (CXCR4), endogenous on SupT1 cells (human (endogenous in SupT1), UniProt P61073 1-352); assay: flow cytometry on cells; competition with APC-conjugated anti-human CXCR4 antibody clone 12G5 (ECL-2) on 5 x 10^4 SupT1 cells; compounds serially diluted in cold PBS; 90 min at 4 °C; MFI normalized to full stain (100%) and unstained (0%); details: one partner purified
[4] = biological target: T2, CXCR4 N-terminally fused to Nanoluciferase (UniProt P61073 1-352); assay: FRET or BRET; NanoBRET ligand binding competition; HEK293T cells stably expressing the receptor N-terminally fused to Nanoluciferase; increasing concentrations of ligands with 10 nM CXCL12-AZ568; 2 h on ice; details: one partner purified
T2 construct: also called CXCR4 fused to a Nanoluciferase

[5] = biological target: T1, C-X-C chemokine receptor type 4 …; assay: flow cytometry on cells; competition with PE-conjugated anti-human CXCR4 antibody clone 1D9 (N-terminus) on 5 x 10^4 SupT1 cells; compounds serially diluted in cold PBS; 90 min at 4 °C; MFI normalized to full stain (100%) and unstained (0%); details: one partner purified

| IC50 [3] [nM] | IC50 [4] [nM] | IC50 [5] [µM] | Molecule | inhibition of CXCR4-tropic HIV-1 infection of TZM-bl reporter cells [1] [nM] | β-arrestin-2 recruitment to CXCR4 (NanoBiT, HEK293T) (CXCR4-LgBiT) [nM] | β-arrestin-2 recruitment to ACKR3 (NanoBiT, HEK293T) (ACKR3-LgBiT) [nM] | IC50 [2] [nM] |
| --- | --- | --- | --- | --- | --- | --- | --- |
|  |  |  | C-X-C motif chemokine ligand 12 (CXCL12), unlabelled (from UniProt P48061 22-93) | 47.9 | 30 | 30 | 36.7 |
| 1300 ± 100 | 829 ± 139 | ~12.1 | G protein-coupled receptor 15 ligand (GPR15LG) (ligand, UniProt Q6UWK7 25-81, looked up, also called C10orf99; AP-57) KRRPAKAWSGRRTRLCCHRVPSPNSTNLKGHHVRLCKPCKLEPEPRLWVVPGALPQV |  |  |  |  |
